According to the supplement of paper PMC12458215:
± gives the uncertainty stated by the source.

System: HEK293T
Assay: plasma membrane surface immunostaining intensity (anti-HA, deep receptor scanning) (arbitrary fluorescence units); higher = higher plasma membrane expression

MKALIFAAAGLLLLLPTFCQSGMENDTNNLAKPTLPIKTFRGAPPNSFEEFPFSALEGWTGATITVKIKCPEESASHLHVKNATMGYLTSSLSTKLIPAIYLLVFVVGVPANAVTLWMLFFRTRSICTTVFYTNLAIADFLFCVTLPFKIAYHLNGNNWVFGEVLCRATTVIFYGNMYCSILLLACISINRYLAIVHPFTYRGLPKHTYALVTCGLVWATVFLYMLPFFILKQEYYLVQPDITTCHDVHNTCESSSPFQLYYFISLAFFGFLIPFVLIIYCYAAIIRTLNAYDHRWLWYVKASLLILVIFTICFAPSNIILIIHHANYYYNNTDGLYFIYLIALCLGSLNSCLDPFLYFLMSKTRNHSTAYLTK [F2RL2]
plasma membrane surface immunostaining intensity (GPCR class: A): 221 ± 21

MMIKKNASSEDFFILLGFSNWPQLEVVLFVVILIFYLMTLTGNLFIIILSYVDSHLHTPMYFFLSNLSFLDLCHTTSSIPQLLVNLRGPEKTISYAGCMVQLYFVLALGIAECVLLVVMSYDRYVAVCRPLHYTVLMHPRFCHLLAAASWVIGFTISALHSSFTFWVPLCGHRLVDHFFCEVPALLRLSCVDTHANELTLMVMSSIFVLIPLILILTAYGAIARAVLSMQSTTGLQKVFRTCGAHLMVVSLFFIPVMCMYLQPPSENSPDQGKFIALFYTVVTPSLNPLIYTLRNKHVKGAAKRLLGWEWGK [OR2J2]
plasma membrane surface immunostaining intensity (GPCR class: A (Olfactory)): 82.9 ± 16

MDLKNGSLVTEFILLGFFGRWELQIFFFVTFSLIYGATVMGNILIMVTVTCRSTLHSPLYFLLGNLSFLDMCLSTATTPKMIIDLLTDHKTISVWGCVTQMFFMHFFGGAEMTLLIIMAFDRYVAICKPLHYRTIMSHKLLKGFAILSWIIGFLHSISQIVLTMNLPFCGHNVINNIFCDLPLVIKLACIETYTLELFVIADSGLLSFTCFILLLVSYIVILVSVPKKSSHGLSKALSTLSAHIIVVTLFFGPCIFIYVWPFSSLASNKTLAVFYTVITPLLNPSIYTLRNKKMQEAIRKLRFQYVSSAQNF [OR4L1]
plasma membrane surface immunostaining intensity (GPCR class: A (Olfactory)): 549 ± 220

MASLSQLSGHLNYTCGAENSTGASQARPHAYYALSYCALILAIVFGNGLVCMAVLKERALQTTTNYLVVSLAVADLLVATLVMPWVVYLEVTGGVWNFSRICCDVFVTLDVMMCTASILNLCAISIDRYTAVVMPVHYQHGTGQSSCRRVALMITAVWVLAFAVSCPLLFGFNTTGDPTVCSISNPDFVIYSSVVSFYLPFGVTVLVYARIYVVLKQRRRKRILTRQNSQCNSVRPGFPQQTLSPDPAHLELKRYYSICQDTALGGPGFQERGGELKREEKTRNSLSPTIAPKLSLEVRKLSNGRLSTSLKLGPLQPRGVPLREKKATQMVAIVLGAFIVCWLPFFLTHVLNTHCQTCHVSPELYSATTWLGYVNSALNPVIYTTFNIEFRKAFLKILSC [DRD3]
plasma membrane surface immunostaining intensity (GPCR class: A): 3810 ± 240

MEPSATPGAQMGVPPGSREPSPVPPDYEDEFLRYLWRDYLYPKQYEWVLIAAYVAVFVVALVGNTLVCLAVWRNHHMRTVTNYFIVNLSLADVLVTAICLPASLLVDITESWLFGHALCKVIPYLQAVSVSVAVLTLSFIALDRWYAICHPLLFKSTARRARGSILGIWAVSLAIMVPQAAVMECSSVLPELANRTRLFSVCDERWADDLYPKIYHSCFFIVTYLAPLGLMAMAYFQIFRKLWGRQIPGTTSALVRNWKRPSDQLGDLEQGLSGEPQPRARAFLAEVKQMRARRKTAKMLMVVLLVFALCYLPISVLNVLKRVFGMFRQASDREAVYACFTFSHWLVYANSAANPIIYNFLSGKFREQFKAAFSCCLPGLGPCGSLKAPSPRSSASHKSLSLQSRCSISKISEHVVLTSVTTVLP [HCRTR1]
plasma membrane surface immunostaining intensity (GPCR class: A): 1070 ± 130

MDHQDPYSVQATAAIAAAITFLILFTIFGNALVILAVLTSRSLRAPQNLFLVSLAAADILVATLIIPFSLANELLGYWYFRRTWCEVYLALDVLFCTSSIVHLCAISLDRYWAVSRALEYNSKRTPRRIKCIILTVWLIAAVISLPPLIYKGDQGPQPRGRPQCKLNQEAWYILASSIGSFFAPCLIMILVYLRIYLIAKRSNRRGPRAKGGPGQGESKQPRPDHGGALASAKLPALASVASAREVNGHSKSTGEKEEGETPEDTGTRALPPSWAALPNSGQGQKEGVCGASPEDEAEEEEEEEEEEEECEPQAVPVSPASACSPPLQQPQGSRVLATLRGQVLLGRGVGAIGGQWWRRRAQLTREKRFTFVLAVVIGVFVLCWFPFFFSYSLGAICPKHCKVPHGLFQFFFWIGYCNSSLNPVIYTIFNQDFRRAFRRILCRPWTQTAW [ADRA2B]
plasma membrane surface immunostaining intensity (GPCR class: A): 6390 ± 13

MANSASPEQNQNHCSAINNSIPLMQGNLPTLTLSGKIRVTVTFFLFLLSATFNASFLLKLQKWTQKKEKGKKLSRMKLLLKHLTLANLLETLIVMPLDGMWNITVQWYAGELLCKVLSYLKLFSMYAPAFMMVVISLDRSLAITRPLALKSNSKVGQSMVGLAWILSSVFAGPQLYIFRMIHLADSSGQTKVFSQCVTHCSFSQWWHQAFYNFFTFSCLFIIPLFIMLICNAKIIFTLTRVLHQDPHELQLNQSKNNIPRARLKTLKMTVAFATSFTVCWTPYYVLGIWYWFDPEMLNRLSDPVNHFFFLFAFLNPCFDPLIYGYFSL [GNRHR]
plasma membrane surface immunostaining intensity (GPCR class: A): 160 ± 34

MLNFTDVTEFILLGLTSRREWQVLFFIIFLVVYIITMVGNIGMMVLIKVSPQLNNPMYFFLSHLSFVDVWFSSNVTPKMLENLLSDKKTITYAGCLVQCFFFIALVHVEIFILAAMAFDRYMAIGNPLLYGSKMSRVVCIRLITFPYIYGFLTSLAATLWTYGLYFCGKIEINHFYCADPPLIKMACAGTFVKEYTMIILAGINFTYSLTVIIISYLFILIAILRMRSAEGRQKAFSTCGSHLTAVIIFYGTLIFMYLRRPTEESVEQGKMVAVFYTTVIPMLNPMIYSLRNKDVKKAMMKVISRSC [OR5M3]
plasma membrane surface immunostaining intensity (GPCR class: A (Olfactory)): 120 ± 24

MANVTLVTGFLLMGFSNIQKLRILYGVLFLLIYLAALMSNLLIITLITLDVKLQTPMYFFLKNLSFLDVFLVSVPIPKFIVNNLTHNNSISILGCAFQLLLMTSFSAGEIFILTAMSYDRYVAICCPLNYEVIMNTGVCVLMASVSWAIGGLFGTAYTAGTFSMPFCGSSVIPQFFCDVPSLLRISCSETLMVIYAGIGVGACLSISCFICIVISYIYIFSTVLKIPTTKGQSKAFSTCFPHLTVFTVFIITAYFVYLKPPSNSPSVIDRLLSVIYTVMPPVFNPVTYSLRNNDMKCALIRLLQKTYGQEAYFI [OR14A2]
plasma membrane surface immunostaining intensity (GPCR class: A (Olfactory)): 133 ± 42

MQRPGPRLWLVLQVMGSCAAISSMDMERPGDGKCQPIEIPMCKDIGYNMTRMPNLMGHENQREAAIQLHEFAPLVEYGCHGHLRFFLCSLYAPMCTEQVSTPIPACRVMCEQARLKCSPIMEQFNFKWPDSLDCRKLPNKNDPNYLCMEAPNNGSDEPTRGSGLFPPLFRPQRPHSAQEHPLKDGGPGRGGCDNPGKFHHVEKSASCAPLCTPGVDVYWSREDKRFAVVWLAIWAVLCFFSSAFTVLTFLIDPARFRYPERPIIFLSMCYCVYSVGYLIRLFAGAESIACDRDSGQLYVIQEGLESTGCTLVFLVLYYFGMASSLWWVVLTLTWFLAAGKKWGHEAIEANSSYFHLAAWAIPAVKTILILVMRRVAGDELTGVCYVGSMDVNALTGFVLIPLACYLVIGTSFILSGFVALFHIRRVMKTGGENTDKLEKLMVRIGLFSVLYTVPATCVIACYFYERLNMDYWKILAAQHKCKMNNQTKTLDCLMAASIPAVEIFMVKIFMLLVVGITSGMWIWTSKTLQSWQQVCSRRLKKKSRRKPASVITSGGIYKKAQHPQKTHHGKYEIPAQSPTCV [FZD10]
plasma membrane surface immunostaining intensity (GPCR class: F): 2420 ± 580

MNGDHMVLGSSVTDKKAIILVTILLLLRLVAIAGNGFITAALGVEWVLRRMLLPCDKLLVSLGASRFCLQSVVMGKTIYVFLHPMAFPYNPVLQFLAFQWDFLNAATLWSSTWLSVFYCVKIATFTHPVFFWLKHKLSGWLPWMLFSSVGLSSFTTILFFIGNHRMYQNYLRNHLQPWNVTGDSIRSYCEKFYLFPLKMITWTMPTAVFFICMILLITSLGRHRKKALLTTSGFREPSVQAHIKALLALLSFAMLFISYFLSLVFSAAGIFPPLDFKFWVWESVIYLCAAVHPIILLFSNCRLRAVLKSRRSSRCGTP [TAS2R60]
plasma membrane surface immunostaining intensity (GPCR class: Taste): 137 ± 36

MDLGKPMKSVLVVALLVIFQVCLCQDEVTDDYIGDNTTVDYTLFESLCSKKDVRNFKAWFLPIMYSIICFVGLLGNGLVVLTYIYFKRLKTMTDTYLLNLAVADILFLLTLPFWAYSAAKSWVFGVHFCKLIFAIYKMSFFSGMLLLLCISIDRYVAIVQAVSAHRHRARVLLISKLSCVGIWILATVLSIPELLYSDLQRSSSEQAMRCSLITEHVEAFITIQVAQMVIGFLVPLLAMSFCYLVIIRTLLQARNFERNKAIKVIIAVVVVFIVFQLPYNGVVLAQTVANFNITSSTCELSKQLNIAYDVTYSLACVRCCVNPFLYAFIGVKFRNDLFKLFKDLGCLSQEQLRQWSSCRHIRRSSMSVEAETTTTFSP [CCR7]
plasma membrane surface immunostaining intensity (GPCR class: A): 2440 ± 380

MEMFTFLLTCIFLPLLRGHSLFTCEPITVPRCMKMAYNMTFFPNLMGHYDQSIAAVEMEHFLPLANLECSPNIETFLCKAFVPTCIEQIHVVPPCRKLCEKVYSDCKKLIDTFGIRWPEELECDRLQYCDETVPVTFDPHTEFLGPQKKTEQVQRDIGFWCPRHLKTSGGQGYKFLGIDQCAPPCPNMYFKSDELEFAKSFIGTVSIFCLCATLFTFLTFLIDVRRFRYPERPIIYYSVCYSIVSLMYFIGFLLGDSTACNKADEKLELGDTVVLGSQNKACTVLFMLLYFFTMAGTVWWVILTITWFLAAGRKWSCEAIEQKAVWFHAVAWGTPGFLTVMLLAMNKVEGDNISGVCFVGLYDLDASRYFVLLPLCLCVFVGLSLLLAGIISLNHVRQVIQHDGRNQEKLKKFMIRIGVFSGLYLVPLVTLLGCYVYEQVNRITWEITWVSDHCRQYHIPCPYQAKAKARPELALFMIKYLMTLIVGISAVFWVGSKKTCTEWAGFFKRNRKRDPISESRRVLQESCEFFLKHNSKVKHKKKHYKPSSHKLKVISKSMGTSTGATANHGTSAVAITSHDYLGQETLTEIQTSPETSMREVKADGASTPRLREQDCGEPASPAASISRLSGEQVDGKGQAGSVSESARSEGRISPKSDITDTGLAQSNNLQVPSSSEPSSLKGSTSLLVHPVSGVRKEQGGGCHSDT [FZD6]
plasma membrane surface immunostaining intensity (GPCR class: F): 329 ± 75

MGPRAKTISSLFFLLWVLAEPAENSDFYLPGDYLLGGLFSLHANMKGIVHLNFLQVPMCKEYEVKVIGYNLMQAMRFAVEEINNDSSLLPGVLLGYEIVDVCYISNNVQPVLYFLAHEDNLLPIQEDYSNYISRVVAVIGPDNSESVMTVANFLSLFLLPQITYSAISDELRDKVRFPALLRTTPSADHHIEAMVQLMLHFRWNWIIVLVSSDTYGRDNGQLLGERVARRDICIAFQETLPTLQPNQNMTSEERQRLVTIVDKLQQSTARVVVVFSPDLTLYHFFNEVLRQNFTGAVWIASESWAIDPVLHNLTELRHLGTFLGITIQSVPIPGFSEFREWGPQAGPPPLSRTSQSYTCNQECDNCLNATLSFNTILRLSGERVVYSVYSAVYAVAHALHSLLGCDKSTCTKRVVYPWQLLEEIWKVNFTLLDHQIFFDPQGDVALHLEIVQWQWDRSQNPFQSVASYYPLQRQLKNIQDISWHTINNTIPMSMCSKRCQSGQKKKPVGIHVCCFECIDCLPGTFLNHTEDEYECQACPNNEWSYQSETSCFKRQLVFLEWHEAPTIAVALLAALGFLSTLAILVIFWRHFQTPIVRSAGGPMCFLMLTLLLVAYMVVPVYVGPPKVSTCLCRQALFPLCFTICISCIAVRSFQIVCAFKMASRFPRAYSYWVRYQGPYVSMAFITVLKMVIVVIGMLATGLSPTTRTDPDDPKITIVSCNPNYRNSLLFNTSLDLLLSVVGFSFAYMGKELPTNYNEAKFITLSMTFYFTSSVSLCTFMSAYSGVLVTIVDLLVTVLNLLAISLGYFGPKCYMILFYPERNTPAYFNSMIQGYTMRRD [TAS1R2]
plasma membrane surface immunostaining intensity (GPCR class: Taste): 229 ± 23
